The target of the test is T1, MBP-53BP1 IRIF formation fragment a.a. 1220–1639 (human, UniProt Q12888 1220-1639).
T1 construct: 53BP1, minimal region for IRIF formation, a.a; also called in vitro purified 53BP1 a.a; source: E. coli BL21, purified (amylose resin, maltose elution)
Kind of test: pull-down; in vitro: MBP-purified protein incubated with 10.5 μg biotinylated peptide and 10 μL streptavidin beads, 1 h at 4 °C; washed three times with NETN; western blot. Particulars: both partners purified. (A western blot detects proteins with antibodies after separation by electrophoresis.)

Non-standard residues stand in square brackets, D forms with d. No end group written: not given here. *: point of attachment. Biotin = O=C1N[C@H]2[C@H](CS[C@H]2CCCCC(=O)*)N1; pS = N[C@@H](COP(=O)(O)O)C(=O)O

T1 sequence (Q12888 1220-1639): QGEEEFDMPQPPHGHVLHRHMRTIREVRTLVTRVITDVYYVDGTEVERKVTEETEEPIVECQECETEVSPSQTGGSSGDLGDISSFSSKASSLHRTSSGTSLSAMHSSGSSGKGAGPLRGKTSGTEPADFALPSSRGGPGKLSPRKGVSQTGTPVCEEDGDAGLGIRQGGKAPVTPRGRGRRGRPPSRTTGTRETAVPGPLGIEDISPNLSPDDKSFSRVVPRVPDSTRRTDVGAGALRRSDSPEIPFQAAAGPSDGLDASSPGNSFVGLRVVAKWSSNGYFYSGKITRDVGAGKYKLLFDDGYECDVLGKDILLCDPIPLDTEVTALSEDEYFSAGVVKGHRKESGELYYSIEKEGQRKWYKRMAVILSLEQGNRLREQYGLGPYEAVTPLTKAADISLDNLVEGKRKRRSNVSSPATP

B1: biotinylated phosphorylated S139 H2AX C-terminal tail peptide (peptide)
peptide: Biotin-TSATVGPKAPSGGKKATQA[pS]QEY
notes: also called 23-amino acid phosphorylated H2AX C-terminal tail peptide; γH2AX C-terminal tail; source: synthetic peptide, bought: genscript
Consider B1, for which the binding result is reported as “binds”.

Values taken from publication PMC11143218, “Evolved histone tail regulates 53BP1 recruitment at damaged chromatin” (Nature Communications, 2024).
